Laboratory results reported in patent publication US20260191982A1 (GENOME, published 2026).
Values joined by “and” are separate entries in the source; they are usually repeats but may differ in a detail not shown here. Equal entries are not always repeated.

T1: human BCAM overexpressed on HEK293FT cells (HEK293FT/hBCAM) (human, UniProt P50895 32-628)
T1 construct: whole, on cells; also called HEK293FT/hBCAM cells; BCAM-overexpressing HEK293 cells
T1 sequence (looked up): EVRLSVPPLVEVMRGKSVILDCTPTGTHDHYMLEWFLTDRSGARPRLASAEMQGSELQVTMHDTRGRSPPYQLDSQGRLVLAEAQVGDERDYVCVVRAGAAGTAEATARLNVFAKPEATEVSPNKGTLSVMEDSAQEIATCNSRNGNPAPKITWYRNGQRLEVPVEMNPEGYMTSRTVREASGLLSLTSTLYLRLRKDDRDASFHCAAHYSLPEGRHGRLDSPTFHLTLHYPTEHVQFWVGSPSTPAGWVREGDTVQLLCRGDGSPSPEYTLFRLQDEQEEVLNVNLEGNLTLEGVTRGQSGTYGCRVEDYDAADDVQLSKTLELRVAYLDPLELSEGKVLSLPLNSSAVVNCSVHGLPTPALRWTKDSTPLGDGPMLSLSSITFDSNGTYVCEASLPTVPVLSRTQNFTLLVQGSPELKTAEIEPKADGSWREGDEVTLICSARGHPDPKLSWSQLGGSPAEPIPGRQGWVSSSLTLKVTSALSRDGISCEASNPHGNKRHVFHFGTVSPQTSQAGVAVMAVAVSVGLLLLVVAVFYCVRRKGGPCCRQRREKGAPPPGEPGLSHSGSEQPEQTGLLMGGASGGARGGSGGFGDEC

T2: human BCAM recombinant protein (SinoBiological, USA) (human, UniProt P50895 32-547)
T2 construct: Bought protein; In the sandwich ELISA it was captured by a coated anti-His antibody, which implies a His tag; also called recombinant human BCAM protein; basal cell adhesion molecule
T2 sequence (looked up): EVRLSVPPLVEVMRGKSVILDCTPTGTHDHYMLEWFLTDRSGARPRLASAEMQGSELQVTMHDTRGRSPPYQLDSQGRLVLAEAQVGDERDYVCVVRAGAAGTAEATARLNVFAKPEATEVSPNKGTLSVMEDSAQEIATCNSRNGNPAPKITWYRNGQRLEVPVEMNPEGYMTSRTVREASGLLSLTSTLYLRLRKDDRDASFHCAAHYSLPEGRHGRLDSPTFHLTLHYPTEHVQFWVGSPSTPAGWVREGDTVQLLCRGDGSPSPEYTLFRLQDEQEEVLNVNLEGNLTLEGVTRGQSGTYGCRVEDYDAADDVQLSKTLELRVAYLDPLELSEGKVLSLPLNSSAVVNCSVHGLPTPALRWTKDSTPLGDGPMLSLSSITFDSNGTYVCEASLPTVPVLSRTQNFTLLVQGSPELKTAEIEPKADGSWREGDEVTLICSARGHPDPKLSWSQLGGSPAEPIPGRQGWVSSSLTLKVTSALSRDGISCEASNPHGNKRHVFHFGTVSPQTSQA


Tests used:
[1] = target: T1, human BCAM overexpressed on HEK293FT …; assay: flow cytometry on HEK293FT cells overexpressing human BCAM, geometric MFI
Protocol: The binding affinity of Ab1, Ab2 and Ab3 to HEK293FT cells overexpressing human BCAM (HEK293FT/hBCAM) was evaluated by flow cytometry analysis. HEK293FT cells (3.0×10⁶) were seeded to 10 cm cell culture dish and incubated for […], 5% CO₂ incubator. The next day, jetPRIME transfection reagent (20 μL) and human BCAM expression plasmid (10 μg) prepared in jetPRIME transfection buffer (200 μL) were mixed and incubated for 10 min at room temperature. The mixture was added to HEK293FT cells drop-wisely and incubated for 4 hr at 37° C., 5% CO₂ incubator. After 4 hr, the mixture from HEK293FT cells was replaced with fresh complete media and incubated for overnight. HEK293FT/hBCAM cells prepared at 1.0×10⁵ cells/100 μL in FACS buffer. The 100 μL of Ab1, Ab2 (3 pM~56 nM, serial 3-fold dilution, 10 points) and Ab3 (1.524 pM~30 nM, serial 3-fold dilution, 10 points), and HG4K IgG4 (SinoBiological, USA) and HG1K IgG1 (SinoBiological, USA) diluted with FACS buffer was added to cells and incubated for 30 min at 4° C. The cells were washed twice with 200 μL of FACS buffer, and then 1 μg/mL of secondary antibody (AlexaFlour® 647 AffiniPure Goat Anti-Human IgG (H+L), JacksonImmunoResearch, USA) diluted with FACS buffer was added to cells and incubated for 30 min at 4° C. in the dark. After washing twice with 200 μL of FACS buffer, and 7-AAD diluted with FACS buffer (1:100) was added to cells and transferred to FACS tubes for analysis. At least 1.0×10⁴ live cells per sample were read using FACSCantoII (BD, USA). The geometric mean fluorescence intensity for assessing the Ab1, Ab2 and Ab3 binding to hBCAM on HEK293FT/hBCAM cells was measured. The graphs were generated as sigmoidal dose-response curves and EC₅₀ values were determined by nonlinear regression with a four-parameter logistic equation using GraphPad Prism software (GraphPad Software Inc., San Diego, CA, USA). […] See FIGS. 20a and 20b and Table 1D and 1E.

[2] = target: T2, human BCAM recombinant protein …; assay: indirect ELISA, human BCAM coated on plate at 25 nM, anti-human IgG Fc-HRP detection
Protocol: The binding affinity of Ab1 and Ab2 to human BCAM recombinant protein was evaluated using an indirect ELISA (Enzyme-Linked Immunosorbent Assay) method. Human BCAM (SinoBiological, USA) diluted in PBS to 25 nM, and 50 μL of prepared proteins was added to 96-well half plate (Costar, USA) and incubated overnight at 4° C. Next day, solution containing human BCAM was removed, and the plate was washed 3 times with 150 μL of PBS-T (0.1% Tween-20 in PBS). The plate coated with human BCAM was blocked with 150 μL of 3% BSA blocking buffer for 1 hr at 37° C. Blocking buffer was removed, and 50 μL of Ab1 and Ab2 (6 pM~1 μM, serial 3-fold dilution, 12 points), and HG4K IgG4 (SinoBiological, USA) and HG1K IgG1 (SinoBiological, USA) diluted with blocking buffer was added to each well and incubated for 2 hr at 37° C. The plate was washed 3 times with 150 μL of PBS-T, and secondary antibody (HRP-conjugated anti-human IgG Fc antibody; ThermoFisher Scientific, USA) diluted with blocking buffer (1:100,000) was added to each well and incubated for 1 hr at 37° C. […] The absorbance (Optical density at 450 nm, OD₄₅₀) was measured at 450 nm using Synergy H1 (BioTek, Winooski, VT). The graphs were generated as sigmoidal dose-response curves and EC₅₀ values were determined by nonlinear regression with a four-parameter logistic equation using GraphPad Prism software (GraphPad Software Inc., San Diego, CA, USA).

[3] = target: T2, human BCAM recombinant protein …; assay: sandwich ELISA, human BCAM captured by coated anti-His antibody, anti-human IgG Fc-HRP detection
Protocol: The binding affinity of Ab1 and Ab3 to human BCAM recombinant protein was evaluated using sandwich ELISA (Enzyme-Linked Immunosorbent Assay) method. Anti-His antibody (Biolegend, USA) diluted in PBS to 4 μg/mL was added to 96-well plate (ThermoFisher Scientific, USA) and incubated overnight at 4° C. Next day, solution containing anti-his antibody was removed, and the plate was washed 3 times with 300 μL of PBS-T (0.1% Tween-20 in PBS). The plate coated with anti-his antibody was blocked with 300 μL of 3% skim milk blocking buffer for 1 hr at room temperature. Human BCAM (SinoBiological, USA) diluted in blocking buffer to 25 nM, and 100 μL of prepared proteins was added to 96-well plate and incubated for 1 hr at room temperature. The plate was washed 3 times with 300 μL of PBS-T, and 100 μL of Ab1 and Ab3 (6.4 pM~500 nM, serial 5-fold dilution, 8 points) diluted with blocking buffer was added to each well and incubated for 1 hr at room temperature. […] The absorbance (Optical density at […]) was measured at 450 nm using Synergy H1 (BioTek, Winooski, VT). The graphs were generated as sigmoidal dose-response curves and EC₅₀ values were determined by nonlinear regression with a three-parameter logistic equation using GraphPad Prism software (GraphPad Software Inc., San Diego, CA, USA).

Binder | EC50 [1] | EC50 [2] | EC50 [3]
Ab1 (anti-BCAM antibody, human IgG4 S228P isotype) (antibody, human IgG4 S228P isotype, lambda light chain; expressed in ExpiCHO-S cells) heavy: not shown light: LPVLTQPPSASGSPGQSVTISCTGTSSDVGGYNYVSWYQQHPGKAPKLMIYEVNKRPSGVPDRFSGSKSGNTASLTVSGLQAEDEADYYCCSYAGSNNYVFGTGTKVTVLGQPKAAPSVTLFPPSSEELQANKATLVCLISDFYPGAVTVAWKADSSPVKAGVETTTPSKQSNNKYAASSYLSLTPEQWKSHRSYSCQVTHEGSTVEKTVAPTECS | 0.184 nM and 0.027 µg/mL | 0.112 nM | 1.28 nM and 0.192 µg/mL
Ab2 (anti-BCAM antibody, human IgG1 isotype) (antibody, human IgG1 isotype) heavy: not shown light: LPVLTQPPSASGSPGQSVTISCTGTSSDVGGYNYVSWYQQHPGKAPKLMIYEVNKRPSGVPDRFSGSKSGNTASLTVSGLQAEDEADYYCCSYAGSNNYVFGTGTKVTVLGQPKAAPSVTLFPPSSEELQANKATLVCLISDFYPGAVTVAWKADSSPVKAGVETTTPSKQSNNKYAASSYLSLTPEQWKSHRSYSCQVTHEGSTVEKTVAPTECS | 0.232 nM and 0.034 µg/mL | 0.078 nM | 
Ab3 (anti-BCAM antibody, human IgG1 LALA isotype) (antibody, human IgG1 LALA isotype) heavy: not shown light: LPVLTQPPSASGSPGQSVTISCTGTSSDVGGYNYVSWYQQHPGKAPKLMIYEVNKRPSGVPDRFSGSKSGNTASLTVSGLQAEDEADYYCCSYAGSNNYVFGTGTKVTVLGQPKAAPSVTLFPPSSEELQANKATLVCLISDFYPGAVTVAWKADSSPVKAGVETTTPSKQSNNKYAASSYLSLTPEQWKSHRSYSCQVTHEGSTVEKTVAPTECS | 0.167 nM and 0.025 µg/mL |  | 1.31 nM and 0.197 µg/mL
